Measurements taken from the supplement of paper PMC10724198.
± gives the standard deviation of the averaged measurements.

Test system: Saccharomyces cerevisiae
Assay: protein stability index of tFT-peptide fusion (C-terminal peptide) (PSI (0-1 scale)); higher = more stable (slower turnover)
Conditions: genetic background: wild type; temperature: 30 C
Experimental: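 Multiplexed protein stability (MPS) profiling in S. cerevisiae. Random 12-aa peptides (tFT-X12 library) are fused to the C-terminus of a sfGFP-mCherry tandem fluorescent timer, after mCherry and a GGGS linker. Cells are FACS-sorted into 8 mCherry/sfGFP bins and deep-sequenced. The protein stability index (PSI) is the read-weighted bin average, scaled from 0 (unstable) to 1 (stable). Only peptides with >10 reads are reported; cells were grown at 30 °C in SC-His with glucose.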
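Further: PSI is a weighted mean of sequencing reads over stability bins, variants kept only with over 10 reads, mCherry proximal and sfGFP distal, peptide attached via GGGS linker.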

Sequence | protein stability index
VVTRANVRRDKM | 0.672 ± 0.023
QRPGKKNGSGRP | 0.682 ± 0.031
PLLALANSPLYR | 0.6708 ± 0.005
GWRACWVRAPRW | 0.708 ± 0.018
KAPPDERGTGAQ | 0.6273 ± 0.0018
AVVYRGGRGGIS | 0.775 ± 0.047
GPPPRYLPAFPA | 0.7057 ± 0.0042
GSVMDMTRGGVS | 0.646 ± 0.097
LCTYVMFACFFF | 0.641 ± 0.1
VLPPPPTRPLLP | 0.743 ± 0.019
GVPPTPTHPCTC | 0.758 ± 0.072
SPPPPPPAPPPP | 0.664 ± 0.042
GGRRLKDAETWA | 0.615 ± 0.029
PPLLPPGPPSPP | 0.588 ± 0.01
PPRGFDPSFQTV | 0.7 ± 0.18
LSALSLFLFFLR | 0.58 ± 0.046
KREMESTTHSKT | 0.5985 ± 0.0011
IVGAVMMGGRTM | 0.68 ± 0.013
HTRSPVPPPPPS | 0.657 ± 0.0019
PPPPHDLLTPPS | 0.736 ± 0.0079
WPTPRVGIDLEN | 0.631 ± 0.05
PLKKLTRIIPKL | 0.747 ± 0.1
PPSPAGPLPSPA | 0.686 ± 0.021
VMVMELHGYPVV | 0.655 ± 0.044
PRQGTRKYDKMN | 0.724 ± 0.059

Sequence | protein stability index
VWCGVLVRSCWV | 0.52 ± 0.0091
GWRRSWVWDVGG | 0.699 ± 0.027
ALSPPSPTPASA | 0.694 ± 0.049
KKSKEKGTRRQR | 0.651 ± 0.073
QQMSLRKNQKVK | 0.7 ± 0.066
GASPRAYPLPPP | 0.707 ± 0.032
KKKKNKNEKPKK | 0.746 ± 0.074
RVVYANSRVSDN | 0.6479 ± 0.0055
GVGLSGEGGLGR | 0.642 ± 0.015
RHGFTNINGIKH | 0.714 ± 0.012
EGAQVVLVRVGV | 0.547 ± 0.012
LVLGFDVTPGTF | 0.728 ± 0.017
HRREEDQRPYSR | 0.768 ± 0.021
PRTPRPPSPPAS | 0.739 ± 0.015
VYEIQCGSNFKG | 0.7 ± 0.052
SWVDGGVRRCGV | 0.662 ± 0.019
SKKHIKKKQKRK | 0.687 ± 0.053
CLTYPSFSLSSS | 0.635 ± 0.063
EKGRKKTYGDEK | 0.669 ± 0.02
PVTALIASLILR | 0.611 ± 0.031
VIRSLPSSALPL | 0.662 ± 0.08
LTTMSPGLLRRP | 0.639 ± 0.065
RSGWSYRDRGPS | 0.651 ± 0.082
CCLSVSSHLPHS | 0.7096 ± 0.00068
PHSKADISQIGG | 0.653 ± 0.0072

Sequence | protein stability index
KRYRKGGRPMRA | 0.66 ± 0.06
PHFSSLPWAPPG | 0.749 ± 0.041
AGLEPGTAALVD | 0.641 ± 0.094
ASGWWGGAVGLR | 0.68375 ± 0.00064
LLLVRNCQDSRQ | 0.69 ± 0.057
PASPFPQTCPPP | 0.737 ± 0.074
ASRSRFMREQMV | 0.567 ± 0.027
AQLGQTCDRDGM | 0.79 ± 0.17
KKQKKKKTQTNK | 0.68224 ± 0.00034
KSGGWLWGGGGG | 0.663 ± 0.054
QHALSAPRTILP | 0.654 ± 0.03
VNCAYCRERKRD | 0.7209 ± 0.0031
VVQEIGGSVRRE | 0.6814 ± 0.0035
SPSPQPLRRAHP | 0.698 ± 0.043
PPVLPVGLPPTP | 0.684 ± 0.035
PLPPPPSPLPHF | 0.692 ± 0.013
RTPQSPRVSVRN | 0.6586 ± 0.0027
RLYGCNYAQSRR | 0.712 ± 0.047
KGRWEVRGEGRG | 0.64 ± 0.03
HGKGLKEKRVEG | 0.672 ± 0.041
VGAGAGGGGWVL | 0.782 ± 0.017
SQCNRGSWRSPS | 0.645 ± 0.0073
SPPPLPPTPPPL | 0.7135 ± 0.0055
YSDFLICGIGSY | 0.775 ± 0.037
FVQSMGVGLGWG | 0.694 ± 0.026

Sequence | protein stability index
KRKKEKRKEERK | 0.779 ± 0.011
LPCFPSLNRNPL | 0.7397 ± 0.0015
PLLPPPPSLRSP | 0.747 ± 0.1
TLVNPFYRRFNL | 0.739 ± 0.03
TFLQRFCVGLAL | 0.654 ± 0.041
ARYTGPTRIRAE | 0.672 ± 0.1
SARPTVNRPARN | 0.6933 ± 0.0049
EGRCPAMRGAFG | 0.6797 ± 0.0041
PPPSRLSPVICP | 0.612 ± 0.01
KHKGRSKETHDV | 0.616 ± 0.09
ETVIQRFLSGHI | 0.699 ± 0.017
RCRGSSWLLLCA | 0.518 ± 0.016
TRDVLWHCWVLS | 0.514 ± 0.08
HPAPVPSAPSDA | 0.678 ± 0.054
NPVYSFRAHRLG | 0.5128 ± 0.0037
GGGLGGGGGVWG | 0.7104 ± 0.004
CTCSGELSLRGV | 0.684 ± 0.011
PRTRSYTRCGVT | 0.614 ± 0.024
PERPDPPVNDRN | 0.62 ± 0.029
PPPRPPSPPPPS | 0.699 ± 0.035
GGEGLRGAAWGI | 0.653 ± 0.12
PPRPPRFFLLPP | 0.6586 ± 0.0061
LRFVTAGEFEMK | 0.635 ± 0.061
